Measurements: publication PMC7210939, “ABCG2 transports anticancer drugs via a closed-to-open switch” (Nature Communications, 2020)

Molecular target: T1, Wild-type human ABCG2 with an N-terminal GFP tag (human, UniProt Q9UNQ0)
T1 construct: ABCG2, human, wild type; also called GFP-ABCG2; WT; not shown: GFP, N-terminal, kept
Assay: flow cytometry on cells; 5D3 antibody shift assay: stable GFP-ABCG2 HEK293F cells, 1 ug/mL 5D3 in PBS with 0.5% BSA, 37 °C 45 min, with or without MXN, SN38, imatinib or Ko143; goat-anti-mouse IgG-PE; gated on high GFP
Conditions: one partner purified

T1 sequence (Q9UNQ0 whole entry): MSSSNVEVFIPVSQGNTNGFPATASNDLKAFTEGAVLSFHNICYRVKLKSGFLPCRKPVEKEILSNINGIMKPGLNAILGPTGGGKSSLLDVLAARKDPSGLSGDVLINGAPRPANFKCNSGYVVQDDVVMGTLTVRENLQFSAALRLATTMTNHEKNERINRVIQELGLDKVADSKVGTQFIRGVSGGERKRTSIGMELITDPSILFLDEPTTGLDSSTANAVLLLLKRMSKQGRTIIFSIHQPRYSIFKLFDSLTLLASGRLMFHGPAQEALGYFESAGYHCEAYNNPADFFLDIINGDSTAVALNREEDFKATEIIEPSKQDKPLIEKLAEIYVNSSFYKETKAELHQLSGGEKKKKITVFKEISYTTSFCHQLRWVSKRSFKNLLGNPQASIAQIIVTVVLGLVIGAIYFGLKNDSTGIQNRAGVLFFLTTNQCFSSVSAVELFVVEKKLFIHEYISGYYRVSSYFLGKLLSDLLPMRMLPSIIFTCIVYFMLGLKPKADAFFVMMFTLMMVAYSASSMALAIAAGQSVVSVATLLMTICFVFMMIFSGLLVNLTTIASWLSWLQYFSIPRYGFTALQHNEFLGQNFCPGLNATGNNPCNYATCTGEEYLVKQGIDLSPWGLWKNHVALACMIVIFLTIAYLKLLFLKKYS

B1: 5D3 antibody (antibody, V domains shown)
VH: QVQLQESGPGLVKPSQSLSLTCTVTGFSITSDYAWNWIRQFPGKKLEWMGYINFDGGTTYNPSLRGRISITRDTSKNQFFLQLRSVTPEDTATYYCATFYGAKGTLDYWGQGTSVTVSS
VL: DIVLTQSPSSFSVSLGDRVTISCKASGYILNRLAWYQQKPGNAPRLLISGATSLETGFPSRFSGTGSGKDYTLSISSLQTEDVGTYYCQQYWSTPWTFGGGTKLEIR
notes: the PDB entry holds the Fab only; also called conformation specific 5D3 antibody
  binding result: binds
